Source: patent publication US20240309103A1
One block for each binder: values may come before it.

Experiments:
[1] = molecular target: mNPR1-mFc:hANP complex (mouse; human) (UniProt P01160); assay: SPR Biacore, mAb captured by anti-human Fc, 25C
[2] = molecular target: mNPR1-mFc:hBNP complex (mouse; human) (UniProt P16860); assay: SPR Biacore, mAb captured by anti-human Fc, 25C
[3] = molecular target: mNPR1-mFc:hANP complex (mouse; human) (UniProt P01160); assay: SPR Biacore, mAb captured by anti-human Fc, 37C
[4] = molecular target: mNPR1-mFc:hBNP complex (mouse; human) (UniProt P16860); assay: SPR Biacore, mAb captured by anti-human Fc, 37C
[5] = molecular target: mNPR1-mFc:hANP complex (mouse; human) (UniProt P01160); assay: SPR Biacore, mAb captured by anti-human Fc, 37C; kinetics IC* (inconclusive)
[6] = molecular target: mNPR1-mFc:hBNP complex (mouse; human) (UniProt P16860); assay: as above
[7] = molecular target: human NPR1 on HEK293/hNPR1.myc.DDK cells (0 hANP) (human) (UniProt P16066); assay: cell-based or functional assay
Sequence of human NPR1 on HEK293/hNPR1.myc.DDK cells (0 hANP) (human) (P16066 33-1061): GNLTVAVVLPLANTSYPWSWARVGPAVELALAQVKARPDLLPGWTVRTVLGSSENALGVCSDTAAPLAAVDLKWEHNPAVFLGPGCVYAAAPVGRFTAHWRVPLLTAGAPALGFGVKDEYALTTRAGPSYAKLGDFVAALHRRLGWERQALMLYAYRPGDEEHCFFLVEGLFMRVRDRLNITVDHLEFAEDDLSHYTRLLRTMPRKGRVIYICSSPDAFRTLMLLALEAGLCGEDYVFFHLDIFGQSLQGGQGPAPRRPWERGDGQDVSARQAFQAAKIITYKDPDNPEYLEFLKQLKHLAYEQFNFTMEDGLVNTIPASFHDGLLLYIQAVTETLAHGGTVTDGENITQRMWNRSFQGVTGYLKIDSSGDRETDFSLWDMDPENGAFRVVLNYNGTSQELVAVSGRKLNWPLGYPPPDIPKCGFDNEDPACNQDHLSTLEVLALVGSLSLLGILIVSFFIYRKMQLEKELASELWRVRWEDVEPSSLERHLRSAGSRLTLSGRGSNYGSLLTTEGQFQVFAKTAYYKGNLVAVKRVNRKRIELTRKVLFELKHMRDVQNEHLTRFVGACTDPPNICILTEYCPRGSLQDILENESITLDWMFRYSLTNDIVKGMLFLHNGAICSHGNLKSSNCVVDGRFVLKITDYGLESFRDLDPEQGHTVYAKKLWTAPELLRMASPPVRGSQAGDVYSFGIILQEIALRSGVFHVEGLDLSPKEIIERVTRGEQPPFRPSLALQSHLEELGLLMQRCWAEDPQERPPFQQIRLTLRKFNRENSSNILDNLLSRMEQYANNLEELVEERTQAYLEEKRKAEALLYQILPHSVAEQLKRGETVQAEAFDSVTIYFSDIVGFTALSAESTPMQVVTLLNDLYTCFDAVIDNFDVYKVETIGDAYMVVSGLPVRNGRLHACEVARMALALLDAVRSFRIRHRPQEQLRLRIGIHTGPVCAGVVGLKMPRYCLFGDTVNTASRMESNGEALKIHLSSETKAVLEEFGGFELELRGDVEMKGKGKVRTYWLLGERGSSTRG

[8] = molecular target: human NPR1 on HEK293/hNPR1.myc.DDK cells (no hANP added) (human) (UniProt P16066); assay: cell-based or functional assay
Sequence of human NPR1 on HEK293/hNPR1.myc.DDK cells (no hANP added) (human) (P16066 33-1061): as above

[9] = molecular target: human NPR1 on HEK293/hNPR1.myc.DDK cells (0 hANP) (human) (UniProt P16066); assay: ECL cell binding (MSD), 0 hANP

100 nM Ag Bound (RU) [1]: 0 RU | 100 nM Ag Bound (RU) [2]: 1 RU | 100 nM Ag Bound (RU) [3]: 1 RU | 100 nM Ag Bound (RU) [4]: 1 RU
B1: mAb22809 (antibody, human IgG4, V domains shown)
VH: QLQLRESGPGLVKPSETLSLTCTVSGGSINDNSFFWDWIRQTPGRGLEWIGNIFFDGNTYYTPSLKSRVIISVDMSQNQFSLRLTSVTAADTALYYCARHKRSMTAWGFFDYWGQGTLVTVSS
VL: DIQMTQSPSSLSASVGDRVTITCRASKRINTYLNWYQQKPGKAPKVLIYSASNLQSGVPSRFSGSGSGTDFTLTINSLQPEDFATYFCQQSFSAPPITFGQGTRLEIK

100 nM Ag Bound (RU) [1]: 0 RU | 100 nM Ag Bound (RU) [2]: 1 RU | 100 nM Ag Bound (RU) [3]: 0 RU | 100 nM Ag Bound (RU) [4]: 1 RU
B2: mAb25508 (antibody, human IgG4, V domains shown)
VH: EVQLVESGGGVVRPGGSLRLSCAASGFNVDDYGMSWVRQIPGKGLEWISGINWNGGRIYYADSMKGRITISRDNAKNSLYLQMNSLRAEDTALYHCVRDQWLVRGLDYWGQGTLVTVSS
VL: DIQMTQSPSSLSASVGDRVTITCRASQGIYNYLAWFQQKPGKAPKSLIYAASSLQSGVPSKFSGSGSGTDFTLTISSLQPEDFATYYCQQYNTYPYTFGQGTKLEIK

100 nM Ag Bound (RU) [1]: 1 RU | 100 nM Ag Bound (RU) [2]: 5 RU | 100 nM Ag Bound (RU) [3]: 2 RU | 100 nM Ag Bound (RU) [4]: 4 RU
B3: mAb22033 (antibody, human IgG4, V domains shown)
VH: QVQLVQSGAEVKKPGASVTVSCKASGYTFTDYYMHWVRQAPGQGLEWMGWIKPNSGGTNSAQRFQGRITMTWDTSISTAYMELSRLRSDDTAVYYCSRGGPVMNYYYYYGMDVWGQGTTVTVSS
VL: NIQMTQSPSSLSASVGDRVTITCRASQSIDSYLNWYQQKPGKAPKLLIYVASSLQSGVPSRFSGSGSGKDFTLTISSLQPEDFATYYCQQSYSIPTFGQGTRLEIK

100 nM Ag Bound (RU) [1]: 18 RU | Kd [1]: 424 nM | koff [1]: 0.0839 s⁻¹ | kon [1]: 198000 M⁻¹ s⁻¹ | t½ [1]: 0.14 min | 100 nM Ag Bound (RU) [2]: 21 RU | Kd [2]: 445 nM | koff [2]: 0.0682 s⁻¹ | kon [2]: 153000 M⁻¹ s⁻¹ | t½ [2]: 0.17 min | 100 nM Ag Bound (RU) [5]: 15 RU | 100 nM Ag Bound (RU) [6]: 17 RU
B4: mAb22805 (antibody, human IgG4, V domains shown)
VH: QVQLVESGGGVVQPGRSLRLSCAASGFTFSTYGMHWVRQAPGKGLEWVALIWNDGSNKYYADSVKGRFTISRDNSKNTLDLQMNSLRAEDTAVYYCARLNTRITGTTNLDYWGQGTLVTVSS
VL: DIQMTQSPSSLSASVGDRVTVSCRASQSIANYLNWYQQKPGKAPNLLIYGAYTLQSGVPSRFRGSGSGTDFTLTISSLQPEDFATYYCQQTYSTPPITFGQGTRLEIK

100 nM Ag Bound (RU) [1]: 1 RU | 100 nM Ag Bound (RU) [2]: 2 RU | 100 nM Ag Bound (RU) [3]: 1 RU | 100 nM Ag Bound (RU) [4]: 2 RU
B5: mAb25497 (antibody, human IgG4, V domains shown)
VH: QVQLVQSGAEVKEPGASVKVSCKASGYTFTDYYIHWVRQAPGQGLEWMGWINLNSGGKNHAQKFQGRVTVTSDTSINTAYIELGRLRGDDTAVYYCSRGGGSHYYYYYHGMDVWGQGTTVTVSS
VL: DIQMTQSPSSLSASVGDRITITCRASHSIDSYLNWYQQKPGKAPKLLIYPASTLQSGVPSRFSGSGSGTDFTLTISSLQPEDSAIYYCQQSYSTPLTFGGGTKVEIK

100 nM Ag Bound (RU) [1]: 0 RU | 100 nM Ag Bound (RU) [2]: 0 RU | 100 nM Ag Bound (RU) [3]: 1 RU | 100 nM Ag Bound (RU) [4]: 1 RU
B6: mAb22035 (antibody, human IgG4, V domains shown)
VH: EVQLVESGGGLVQPGRSLRLSCAASGFTFDDYAMHWVRQAPGKGLEWVSGISWNSGTIGYADSVKGRFTMSRDNAKNSLYLQMNSLRPEDTALYYCAKDMGVSLALWGAFDIWGQGTMVTVSS
VL: DIQMTQSPSSLSASVGDKVTITCRASQNIRTYLNWYQQKPGKAPKVLISTASSLQSGVPSRFSGSGSGTDFTLTISSLQPEDFAVFYCQQSFGIPRTFGQGTKVEIK

100 nM Ag Bound (RU) [1]: 1 RU | 100 nM Ag Bound (RU) [2]: 5 RU | 100 nM Ag Bound (RU) [3]: 1 RU | 100 nM Ag Bound (RU) [4]: 4 RU
B7: mAb25491 (antibody, human IgG4, V domains shown)
VH: QVQLVQSGAEVMKPGASVKVSCKASGYTFTGYYIHWVRQAPGQGLEWMGWITPNSGATNYAQKFQGRVTLTRDTSISTAYMELTRLKSDDTAVYYCARGGQLEFFYYYYGMDVWGQGTTVTVSS
VL: DIQMTQSPSSLSASAGDRVTITCRASQSIDSYLNWYQQKPGKAPKLLISATSGFQSGVPSRFSGSGSGTDFTLTISSLQPEDFGTYYCQQSYTTPITFGQGTRLEIK

% Activation (vs ANP max), Expt 1 [7]: 92.9% | % Activation (vs. ANP max), Expt II [7]: 110% | EC50 (nM), calcium flux, Expt 1 [7]: 161 nM | EC50 (nM), calcium flux, Expt II [7]: > 200 nM | EC50 of Ca2+ flux activation, Expt II [8]: > 200 nM | Ratio at 3.7 nM Ab concentration of Cell Binding Signal (RLU) to HEK293/hNPR1.myc.DKK relative to parental HEK293 [9]: 1 | 100 nM Ag Bound (RU) [1]: 25 RU | Kd [1]: 337 nM | koff [1]: 0.0799 s⁻¹ | kon [1]: 237000 M⁻¹ s⁻¹ | t½ [1]: 0.14 min | 100 nM Ag Bound (RU) [2]: 25 RU | Kd [2]: 215 nM | koff [2]: 0.0503 s⁻¹ | kon [2]: 234000 M⁻¹ s⁻¹ | t½ [2]: 0.23 min | 100 nM Ag Bound (RU) [3]: 35 RU | Kd [3]: 334 nM | koff [3]: 0.0883 s⁻¹ | kon [3]: 264000 M⁻¹ s⁻¹ | t½ [3]: 0.13 min | 100 nM Ag Bound (RU) [4]: 34 RU | Kd [4]: 342 nM | koff [4]: 0.0998 s⁻¹ | kon [4]: 291000 M⁻¹ s⁻¹ | t½ [4]: 0.12 min
B8: mAb25502 (antibody, human IgG4, V domains shown)
VH: QLQLQESGPGLVKPSETLSLTCTVSGGSISSSSYYWGWIRQPPGKGLEWIGSIYYSGSPYYIPSLKSRVTISVDTSKNQFSLKLSSVTAADTAMYYCARQGRGIARAGPFDYWGQGTLVTVSS
VL: DIQMTQSPSSLSASVGDRVTITCRASQGISNYLAWYQEKPGKVPKLLIYAASTLQSGVPSRFSGSGSGTDFTLTITSLQSEDVATYYCQKYNSAPPWTFGQGTKVEIK
